Measurements published in article PMC8246987.

Molecular target: T1, DJ‐1 (human (endogenous in HEK‐293)), Q99497
T1 chain: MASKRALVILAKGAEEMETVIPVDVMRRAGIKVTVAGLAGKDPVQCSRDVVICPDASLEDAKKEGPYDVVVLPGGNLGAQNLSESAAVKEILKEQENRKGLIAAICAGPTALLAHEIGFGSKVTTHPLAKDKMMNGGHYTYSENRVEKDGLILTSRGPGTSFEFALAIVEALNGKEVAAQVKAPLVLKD
Experiment: cross-linking
Conditions: remark: other sources report otherwise

B1: DJ‐1, Q99497 1-189 (natural protein)
chain: MASKRALVILAKGAEEMETVIPVDVMRRAGIKVTVAGLAGKDPVQCSRDVVICPDASLEDAKKEGPYDVVVLPGGNLGAQNLSESAAVKEILKEQENRKGLIAAICAGPTALLAHEIGFGSKVTTHPLAKDKMMNGGHYTYSENRVEKDGLILTSRGPGTSFEFALAIVEALNGKEVAAQVKAPLVLKD
stoichiometry N: 2
